In article PMC6331215 (Journal of molecular biology, 2018):

Assays:
[1] = target: M. marinum EspG3 (construct for SAXS) (M. marinum E11) (UniProt B2HNX0); assay: SAXS
SAXS = target: the molecule itself; assay: SAXS

| Molecule | dimeric fraction at 4.0 mg/ml (wing-shaped dimer model, 4L4W) [1] | dimeric fraction at 6.0 mg/ml (wing-shaped dimer model, 4L4W) [1] | stoichiometry N (SAXS) |
| --- | --- | --- | --- |
| M. marinum EspG3 (construct for SAXS) (from UniProt B2HNX0 1-298) (natural protein) | 1 | 1 |  |
| M. marinum EspG1 (natural protein) MTGPLATGRAGTGDDVVGVEVTIDGMLVIADRLHLVDFPVTLGIRPNIPQEDLREIVWDQVARDLTAQGVLDHNGQPHPAVAAMVDTLSRADRTLEGRWWRRDVGGVMVRFVVCRKGERHVIAVRDGDMLVLQLVAPRVGLAGMVTAVLGTAEPANVEPLTGIASELGECTNAAQLTRYGLTPTTARLYTEIVTNPKSWVEIVASERHPGGTTTHTKAAAGVLDSAHGRLVSLPRQVGGELYGSFLPGTEQNLQRALDSLLELLPSGSWLDRADATARG |  |  | 2 |
